Measurements from paper PMC11737846.

Molecular target: recombinant hemolysin co-regulated protein 1 variant B (rHcp1^(variant B)) of Burkholderia pseudomallei (Burkholderia pseudomallei (clinical isolate DR0089))
Assay: […]) at 10 mg/ml in PBS pH 7.2; […]

## recombinant hemolysin co-regulated protein 1 variant B (rHcp1^(variant B)) of Burkholderia pseudomallei (natural protein)
  stoichiometry N: 6
